Where two headings read alike, the source gives them in different places.
Legend:
[1] = target: T1, human PD-1 extracellular domain protein expressed in Example 1 (tag not stated) (human, UniProt Q15116 25-170); assay: blocking ELISA, PD-1 coated, competitor biotin-labeled PD-L1
T1 construct: extracellular domain; also called PD-1 protein; not shown: human IgG1 Fc or his tag

[2] = target: T1, human PD-1 extracellular domain protein …; assay: ELISA, PD-1 coated
Method: (§1) PD-1 expressed in Example 1 was diluted to a concentration of 1 μg/ml with PBS buffer, pH 7.4, and added to a 96-well microplate (Corning, CLS3590-100EA) at 50 μl per well, thereby incubating in an incubator at 37° C. for 2 hours. After discarding the liquid, a blocking solution of 5% skimmed milk (Shanghai Shenggong Biological Engineering Co., Ltd., A600669-0250) diluted with PBS was added at 200 μl per well, followed by incubating at 37° C. for 3 hours or 4° C. overnight (16-18 hours)) for blocking. Subsequently, the blocking solution was discarded, and the microplate was washed 5 times with PBST buffer (pH 7.4 PBS containing 0.05% tween-20). […] Subsequently, the microplate was washed 5 times with PBST, then 50 μl/well of 1:2500 diluted HRP-labeled secondary antibody (Jackson Immuno Research, 115-035-003) was added, thereby incubating at 37° C. for 1 hour. After washing the microplate 5 times with PBST, 50 μl/well TMB chromogenic substrate (KPL, 52-00-03) was added, then incubated at room temperature for 5-10 min. Finally, 50 μl/well of 1M H₂SO₄ was added to stop the reaction. […] Go microplate reader (ThermoFisher, 51119200) was used to read the absorption value at 450 nm and the EC50 based on the OD value was calculated.
(§2) The above-mentioned TIM-3 and PD-1 bispecific antibodies of the present invention were optimized and designed using the methods of Example 2 and Example 5, and their affinity for TIM-3 and PD-1 were tested respectively.

[3] = target: T2, human TIM-3 extracellular domain-human IgG1 Fc fusion protein (human, UniProt Q8TDQ0 22-199); assay: ELISA
T2 construct: Made in house or bought (ACROBiosystems TM3-H5258); also called TIM-3-hFc; not shown: human IgG1 Fc
Method: (§3) Goat-anti-hFc (Jackson, 109-005-008) was diluted to a concentration of 1 μg/ml with PBS buffer (pH 7.4) and added to a 96-well microplate (Corning, CLS3590-100EA) at a volume of 50 μl/well, then incubated in an incubator at 37° C. for 2 hours (Or the antigen TIM-3 was directly used to coat the microplate with a concentration of 0.5 μg/ml, and then the antibody to be tested was directly added). After discarding the liquid, a blocking solution of 5% skimmed milk (skimmed milk powder purchased from Bright) diluted with PBS was added at 200 μl per well, and the microplate was incubated for 2.5 hours at 37° C. or overnight (16-18 hours) at 4° C. for blocking. The blocking solution was discarded, and the microplate was washed 5 times with PBST buffer (PBS with pH 7.4 containing 0.05% tween-20), then 50 μl/well of 0.5 μg/ml TIM-3-hFc (Example 1) was added and incubated for 2 hours in a 37° C. incubator. After incubation, the microplate was washed 6 times with PB ST. 50 μl/well of supernatant (containing testing antibody) or different concentrations of the antibody to be tested was added, and the microplate was incubated at 37° C. for 2 hours and washed 5 times with PBST. 50 μl/well of 1:2500 diluted HRP-labeled secondary antibody (Jackson Immuno Research, 115-035-003) was added to the microplate, incubating at 37° C. for 1 hour. After washing the microplate 5 times with PBST, 50 μl/well TMB chromogenic substrate (KPL, 52-00-03) was added to the microplate, followed by incubating at room temperature for 10-15 min.
as §2

[4] = target: T1, human PD-1 extracellular domain protein …; assay: ELISA, PD-1 coated; remark: listed apart in the source
Method: as §1
The TIM-3 and PD-1 bispecific antibodies of the present invention were tested for their affinity for TIM-3 and PD-1 using the methods in Example 3 and Example 5, respectively.

[5] = target: T2, human TIM-3 extracellular domain-human …; assay: ELISA; remark: listed apart in the source
Human PD-1-his = target: T3, Human PD-1-his (human, UniProt Q15116 25-170); assay: SPR Biacore, antibody captured on Protein A, antigen in flow
T3 construct: extracellular domain; not shown: his tag
Method: (§4) First, Protein A (Thermo Pierce, Cat #21181) was conjugated to the biosensing chip CMS (Cat. #BR-1005-30, GE), and the chip was activated with the newly prepared 50 mM NHS (N-hydroxysuccinimide) and 200 mM EDC [1-ethyl-3-(3-dimethylaminopropyl) carbodiimide hydrochloride], then 10 μg/ml Protein A prepared with 10 mM NaAC (pH 4.0) was injected. […] The flow rate was 30 μl/min, the binding time was 180 seconds and the dissociation time is 300 seconds. Subsequently, the chip was washed for 30s with 10 mM Glycine-HCl (pH 1.5) at 30 μl/min. The data were fitted with a 1:1 Langmuir model using the software of Biacore T200 evaluation version 3.0 (GE), and the affinity value KD was obtained.

[6] = target: T4, human TIM-3 extracellular domain-his tag protein (human, UniProt Q8TDQ0 22-199); assay: as above
T4 construct: Made in house or bought (ACROBiosystems TM3-H5229); also called TIM-3-his; Human Tim3-his; not shown: his tag
Method: as §4

[7] = target: T2, human TIM-3 extracellular domain-human …; assay: ELISA, EC50 of bispecific over EC50 of the monoclonal control
[8] = target: T2, human TIM-3 extracellular domain-human …; assay: ELISA; remark: listed apart in the source
Method: as §3

[9] = target: T1, human PD-1 extracellular domain protein …; assay: ELISA, EC50 of bispecific over EC50 of the monoclonal control
Method: After washing the microplate 5 times with PBST, 50 μl/well TMB chromogenic substrate (KPL, 52-00-03) was added to the microplate, followed by incubating at room temperature for 10-15 min.
as §1

[10] = target: T1, human PD-1 extracellular domain protein …; assay: ELISA, PD-1 coated; remark: listed apart in the source
Method: as §1

| Binder | EC50 [4] [nM] | EC50 [5] [nM] | Multiple of EC50 variation [7] [ratio] | EC50 [8] [nM] | Multiple of EC50 variation [9] [ratio] | EC50 [10] [nM] | other results |
| --- | --- | --- | --- | --- | --- | --- | --- |
| bispecific antibody LB135 (bispecific antibody, human IgG4 S228P, kappa, ab6VL-(G4S)3-ab6VH-(G4S)3-Ba08VH-hIgG4 with Ba08VL-κ) light: EIVLTQSPATLSLSPGERATISCRASKGVSTSGYSYLHWYQQKPGQAPRLLIYLASYLESGVPARFSGSGSGTDFTLTISSLEPEDFATYYCQHSRELPLTFGTGTKVEIKRTVAAPSVFIFPPSDEQLKSGTASVVCLLNNFYPREAKVQWKVDNALQSGNSQESVTEQDSKDSTYSLSSTLTLSKADYEKHKVYACEVTHQGLSSPVTKSFNRGEC heavy: not shown |  |  |  |  |  |  | IC50 [1]: 1.49 nM; EC50 [2]: 0.082 nM; EC50 [3]: 0.145 nM |
| bispecific antibody LB124 (bispecific antibody, human IgG4 S228P, kappa) light: EIVLTQSPATLSLSPGERATISCRASKGVSTSGYSYLHWYQQKPGQAPRLLIYLASYLESGVPARFSGSGSGTDFTLTISSLEPEDFATYYCQHSRELPLTFGTGTKVEIKRTVAAPSVFIFPPSDEQLKSGTASVVCLLNNFYPREAKVQWKVDNALQSGNSQESVTEQDSKDSTYSLSSTLTLSKADYEKHKVYACEVTHQGLSSPVTKSFNRGEC heavy: not shown | 0.383 | 0.438 |  |  |  |  |  |
| bispecific antibody LB247 (bispecific antibody, human IgG4 S228P, kappa) light: EIVLTQSPATLSLSPGERATLSCRASKGVSTSGYSYLHWYQQKPGQAPRLLIYLASYLESGVPARFSGSGSGTDFTLTISSLEPEDFAVYYCQHSRDLPLTFGGGTKVEIKRTVAAPSVFIFPPSDEQLKSGTASVVCLLNNFYPREAKVQWKVDNALQSGNSQESVTEQDSKDSTYSLSSTLTLSKADYEKHKVYACEVTHQGLSSPVTKSFNRGEC heavy: not shown |  |  | 2.38 | 1.86 | 1.98 | 0.19 | Kd (Human PD-1-his): 7.34 nM; koff (Human PD-1-his): 0.00259 s⁻¹; kon (Human PD-1-his): 353000 M⁻¹ s⁻¹; Kd [6]: 8.29 nM; koff [6]: 0.00332 s⁻¹; kon [6]: 401000 M⁻¹ s⁻¹ |
| bispecific antibody LB123 (bispecific antibody, human IgG4 S228P, kappa) light: EIVLTQSPATLSLSPGERATISCRASKGVSTSGYSYLHWYQQKPGQAPRLLIYLASYLESGVPARFSGSGSGTDFTLTISSLEPEDFATYYCQHSRELPLTFGTGTKVEIKRTVAAPSVFIFPPSDEQLKSGTASVVCLLNNFYPREAKVQWKVDNALQSGNSQESVTEQDSKDSTYSLSSTLTLSKADYEKHKVYACEVTHQGLSSPVTKSFNRGEC heavy: not shown | 0.216 | 0.181 |  |  |  |  |  |
| bispecific antibody LB129 (bispecific antibody, human IgG4 S228P, kappa) light: DIQMTQSPSSLSASVGDRVTITCRASENIYSYLTWYQQKPGKAPKLLIYNAKTLAEGVPSRFSGSGSGTDFTLTISSLQPEDFATYYCQQHYGTPLTFGQGTKLEIKRTVAAPSVFIFPPEIVLTQSPATLSLSPGERATISCRASKGVSTSGYSYLHWYQQKPGQAPRLLIYLASYLESGVPARFSGSGSGTDFTLTISSLEPEDFATYYCQHSRELPLTFGTGTKVEIKRTVAAPSVFIFPPSDEQLKSGTASVVCLLNNFYPREAKVQWKVDNALQSGNSQESVTEQDSKDSTYSLSSTLTLSKADYEKHKVYACEVTHQGLSSPVTKSFNRGEC heavy: not shown | 0.508 | 0.558 |  |  |  |  |  |
| bispecific antibody LB127 (bispecific antibody, human IgG4 S228P, kappa) light: DIQMTQSPSSLSASVGDRVTITCHASQGISSNIGWLQQKPGKAFKGLIYQGSNLEDGVPSRFSGSGSGADYTLTISSLQPEDFATYYCVQFAQFPPTFGQGTKLEIKRTVAAPSVFIFPPEIVLTQSPATLSLSPGERATISCRASKGVSTSGYSYLHWYQQKPGQAPRLLIYLASYLESGVPARFSGSGSGTDFTLTISSLEPEDFATYYCQHSRELPLTFGTGTKVEIKRTVAAPSVFIFPPSDEQLKSGTASVVCLLNNFYPREAKVQWKVDNALQSGNSQESVTEQDSKDSTYSLSSTLTLSKADYEKHKVYACEVTHQGLSSPVTKSFNRGEC heavy: not shown | 0.423 | 0.325 |  |  |  |  |  |
| bispecific antibody LB246 (bispecific antibody, human IgG4 S228P, kappa) light: DIQMTQSPSSLSASVGDRVTITCHASQGISSNIGWLQQKPGKAFKGLIYQGSNLEDGVPSRFSGSGSGADYTLTISSLQPEDFATYYCVQFAQFPPTFGQGTKLEIKGGGGSGGGGSGGGGSEVQLVESGGGLVKPGGSLRLSCAASGFTFSDYYMAWVRQAPGKGLEWVANINYDGSNTYYLDSLKSRFTISRDNAKNSLYLQMNSLRAEDTAVYYCARGLYYYGGNYFAYWGQGTLVTVSSGGGGSGGGGSGGGGSEIVLTQSPATLSLSPGERATLSCRASKGVSTSGYSYLHWYQQKPGQAPRLLIYLASYLESGVPARFSGSGSGTDFTLTISSLEPEDFAVYYCQHSRDLPLTFGGGTKVEIKRTVAAPSVFIFPPSDEQLKSGTASVVCLLNNFYPREAKVQWKVDNALQSGNSQESVTEQDSKDSTYSLSSTLTLSKADYEKHKVYACEVTHQGLSSPVTKSFNRGECGGGGSGGGGSGGGGSEVQLVESGGGLVKPGGSLRLSCAASGFTFSDYYMAWVRQAPGKGLEWVANINYDGSNTYYLDSLKSRFTISRDNAKNSLYLQMNSLRAEDTAVYYCARGLYYYGGNYFAYWGQGTLVTVSSGGGGSGGGGSGGGGSDIQMTQSPSSLSASVGDRVTITCHASQGISSNIGWLQQKPGKAFKGLIYQGSNLEDGVPSRFSGSGSGADYTLTISSLQPEDFATYYCVQFAQFPPTFGQGTKLEIK heavy: not shown |  |  | 12.9 | 2.05 | 21 | 5.51 |  |
| bispecific antibody LB147 (bispecific antibody, human IgG4 S228P, kappa, Ab32VL-(G4S)3-ab32VH-(G4S)3-PemVL-κ with PemVH-hIgG4) light: DIQMTQSPSSLSASVGDRVTITCRASENIYSYLTWYQQKPGKAPKLLIYNAKTLAEGVPSRFSGSGSGTDFTLTISSLQPEDFATYYCQQHYGTPLTFGQGTKLEIKGGGGSGGGGSGGGGSEVQLVESGGGLVKPGGSLRLSCAASGFTFSDYYMTWVRQAPGKGLEWVSSINYDGRNTYYLDSLKSRFTISRDNAKNSLYLQMNSLRAEDTAVYYCARGYYYYGSSPNYFDYWGQGTLVTVSSGGGGSGGGGSGGGGSEIVLTQSPATLSLSPGERATLSCRASKGVSTSGYSYLHWYQQKPGQAPRLLIYLASYLESGVPARFSGSGSGTDFTLTISSLEPEDFAVYYCQHSRDLPLTFGGGTKVEIKRTVAAPSVFIFPPSDEQLKSGTASVVCLLNNFYPREAKVQWKVDNALQSGNSQESVTEQDSKDSTYSLSSTLTLSKADYEKHKVYACEVTHQGLSSPVTKSFNRGEC heavy: not shown |  |  | 0.79 | 0.62 | 0.81 | 0.056 |  |
